Measurements as given in the supplement of paper PMC10724198.
± gives the standard deviation of the averaged measurements.

Test system: Saccharomyces cerevisiae
Test: protein stability index of tFT-peptide fusion (C-terminal peptide) (PSI (0-1 scale)); higher = more stable (slower turnover)
Details: genetic background: cdc34-1; temperature: 37 C
Experimental: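 MPS profiling in S. cerevisiae of the tFT-X12 degron library: putative degron peptides plus stable controls, 12 aa, fused to the C-terminus of a sfGFP-mCherry timer. Cells are FACS-sorted into 8 mCherry/sfGFP bins and deep-sequenced. PSI runs from 0 (unstable) to 1 (stable). Backgrounds are wild type, das1Δ and doa10Δ at 30 °C, and wild type, das1Δ, cdc34-1 and cdc53-1 at 37 °C; 2-3 technical replicates each.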
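Note: PSI is a weighted mean of sequencing reads over stability bins, variants kept only with over 10 reads, mCherry proximal and sfGFP distal, peptide attached via GGGS linker.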

| Sequence | protein stability index |
| --- | --- |
| FPSLLFALFLFI | 0.481 ± 0.046 |

Same assay, conditions: genetic background: cdc53-1; temperature: 37 C

| Sequence | protein stability index |
| --- | --- |
| CTLVFLFFDLCS | 0.533 ± 0.087 |
| CVCVVVCWRCGF | 0.465 ± 0.035 |
| CVIVCVLVWGRA | 0.269 ± 0.062 |
| CVMWFLLSAYYL | 0.4288 ± 0.0029 |
| CVPAPCGRASCR | 0.7301 ± 0.0034 |
| CYSLLFVSVILF | 0.158 ± 0.036 |
| CYVFLCGSFVFV | 0.499 ± 0.0084 |
| DFLSGRCIFFYV | 0.797 ± 0.009 |
| DFRGVSVIRHQV | 0.7327 ± 0.0024 |
| DRTRLFLLLIIA | 0.256 ± 0.038 |
| DTHSRARAVLIA | 0.719 ± 0.015 |
| DYARAWRTEVVC | 0.448 ± 0.025 |
| EFEIALTLIRSI | 0.733 ± 0.0039 |
| EFFILYFFLKVL | 0.274 ± 0.0064 |
| EFVACFRLLVHG | 0.368 ± 0.04 |
| EGLCCGAYFLVF | 0.7228 ± 0.00076 |
| EGLDVRILIQVI | 0.0735 ± 0.0072 |
| EKTKRGLIQRVV | 0.721 ± 0.012 |
| ESRRGILFIYIN | 0.601 ± 0.027 |
| ETCFSFVCSVQC | 0.325 ± 0.025 |

| Sequence | protein stability index |
| --- | --- |
| EVFLARKRSMVV | 0.677 ± 0.058 |
| EWVWVVFSCVSW | 0.429 ± 0.0099 |
| FAIRMHCLIFRC | 0.15 ± 0.024 |
| FCSVFAHFLLCH | 0.443 ± 0.0052 |
| FFCCVLFSIVVY | 0.0863 ± 0.019 |
| FFFSFSFPFLSF | 0.481 ± 0.027 |
| FFFSLFFVLFFA | 0.23 ± 0.011 |
| FFGRWWWSFLLA | 0.634 ± 0.0095 |
| FFLLFCASFLRC | 0.202 ± 0.01 |
| FFLSFICVMLCG | 0.247 ± 0.024 |
| FFSGSVFMAVSL | 0.44 ± 0.0097 |
| FFVWGVFLGVSW | 0.264 ± 0.016 |
| FGEDFCHLLWCC | 0.713 ± 0.021 |
| FGFSFLHLFIFF | 0.395 ± 0.028 |
| FGGICFAVLLCR | 0.262 ± 0.0027 |
| FHICTQLIFITC | 0.0651 ± 0.015 |
| FILCGFSVVLIG | 0.245 ± 0.0032 |
| FILLIFLSLLSP | 0.416 ± 0.024 |
| FIPPRTYCLMIG | 0.682 ± 0.0096 |
| FIRLFLVSFFIS | 0.451 ± 0.027 |

| Sequence | protein stability index |
| --- | --- |
| FLACYSSFLFVS | 0.576 ± 0.011 |
| FLCFFGGCFFLV | 0.646 ± 0.06 |
| FLCLLFYLSFFS | 0.5422 ± 4.9e-05 |
| FLFWVLLVGCSF | 0.299 ± 0.012 |
| FLGVFFYFLLCV | 0.2583 ± 0.002 |
| FLLAIVRGVWLA | 0.115 ± 0.0084 |
| FLPHLMCVFSFC | 0.489 ± 0.01 |
| FLVFRPPALFLR | 0.0985 ± 0.0088 |
| FLVVCGLLSWVW | 0.407 ± 0.029 |
| FLVVSSVGFPLL | 0.73 ± 0.0085 |
| FLWLCLLSLFFR | 0.383 ± 0.035 |
| FLYFLLQFLCSG | 0.544 ± 0.0046 |
| FMCFVLPVFVLV | 0.282 ± 0.034 |
| FNFFFSSVFLLV | 0.252 ± 0.025 |
| FPFFFLSILSAV | 0.2944 ± 0.0028 |
| FPFVYRSVLLFF | 0.484 ± 0.012 |
| FPPRLIPLLARS | 0.4556 ± 0.00087 |
| FPSCYIWEVEVM | 0.403 ± 0.021 |
| FPSLLFALFLFI | 0.502 ± 0.0056 |

Same assay, conditions: genetic background: das1 deletion; temperature: 30 C

| Sequence | protein stability index |
| --- | --- |
| CTLVFLFFDLCS | 0.333 ± 0.042 |
| CVCVVVCWRCGF | 0.306 ± 0.031 |
| CVIVCVLVWGRA | 0.17 ± 0.046 |
| CVMWFLLSAYYL | 0.265 ± 0.037 |
| CVPAPCGRASCR | 0.64 ± 0.041 |
| CYSLLFVSVILF | 0.151 ± 0.015 |
| CYVFLCGSFVFV | 0.36 ± 0.036 |
| DFLSGRCIFFYV | 0.6451 ± 0.0058 |
| DFRGVSVIRHQV | 0.64 ± 0.015 |
| DRTRLFLLLIIA | 0.202 ± 0.028 |
| DTHSRARAVLIA | 0.585 ± 0.016 |
| DYARAWRTEVVC | 0.328 ± 0.021 |
| EFEIALTLIRSI | 0.593 ± 0.01 |
| EFFILYFFLKVL | 0.21 ± 0.03 |
| EFVACFRLLVHG | 0.278 ± 0.021 |
| EGLCCGAYFLVF | 0.584 ± 0.034 |
| EGLDVRILIQVI | 0.179 ± 0.025 |
| EKTKRGLIQRVV | 0.641 ± 0.021 |
| ESRRGILFIYIN | 0.475 ± 0.025 |
| ETCFSFVCSVQC | 0.284 ± 0.036 |

| Sequence | protein stability index |
| --- | --- |
| EVFLARKRSMVV | 0.537 ± 0.036 |
| EWVWVVFSCVSW | 0.307 ± 0.029 |
| FAIRMHCLIFRC | 0.26 ± 0.048 |
| FCSVFAHFLLCH | 0.4 ± 0.013 |
| FFCCVLFSIVVY | 0.129 ± 0.026 |
| FFFSFSFPFLSF | 0.464 ± 0.023 |
| FFFSLFFVLFFA | 0.21 ± 0.035 |
| FFGRWWWSFLLA | 0.538 ± 0.019 |
| FFLDVMFLLFFF | 0.399 ± 0.036 |
| FFLLFCASFLRC | 0.317 ± 0.011 |
| FFLSFICVMLCG | 0.173 ± 0.013 |
| FFSGSVFMAVSL | 0.444 ± 0.04 |
| FFVWGVFLGVSW | 0.265 ± 0.043 |
| FGEDFCHLLWCC | 0.583 ± 0.026 |
| FGFSFLHLFIFF | 0.375 ± 0.033 |
| FGGICFAVLLCR | 0.263 ± 0.035 |
| FHICTQLIFITC | 0.146 ± 0.029 |
| FILCGFSVVLIG | 0.191 ± 0.036 |
| FILLIFLSLLSP | 0.294 ± 0.029 |
| FIPPRTYCLMIG | 0.58 ± 0.0063 |

| Sequence | protein stability index |
| --- | --- |
| FIRLFLVSFFIS | 0.375 ± 0.019 |
| FLACYSSFLFVS | 0.4917 ± 0.0018 |
| FLCFFGGCFFLV | 0.523 ± 0.029 |
| FLCLLFYLSFFS | 0.404 ± 0.028 |
| FLFWVLLVGCSF | 0.245 ± 0.035 |
| FLGVFFYFLLCV | 0.254 ± 0.026 |
| FLLAIVRGVWLA | 0.257 ± 0.034 |
| FLPHLMCVFSFC | 0.394 ± 0.028 |
| FLVFRPPALFLR | 0.198 ± 0.024 |
| FLVVCGLLSWVW | 0.263 ± 0.039 |
| FLVVSSVGFPLL | 0.626 ± 0.018 |
| FLWLCLLSLFFR | 0.436 ± 0.018 |
| FLYFLLQFLCSG | 0.418 ± 0.034 |
| FMCFVLPVFVLV | 0.222 ± 0.029 |
| FNFFFSSVFLLV | 0.342 ± 0.048 |
| FPFFFLSILSAV | 0.256 ± 0.037 |
| FPFVYRSVLLFF | 0.411 ± 0.033 |
| FPPRLIPLLARS | 0.31 ± 0.044 |
| FPSCYIWEVEVM | 0.32 ± 0.039 |
| FPSLLFALFLFI | 0.436 ± 0.027 |
